Residue numbers refer to the chain shown, from its start.

T1: mIL10RaFc (Sino 51298-M02H) (mouse, UniProt Q61727)
T1 chain: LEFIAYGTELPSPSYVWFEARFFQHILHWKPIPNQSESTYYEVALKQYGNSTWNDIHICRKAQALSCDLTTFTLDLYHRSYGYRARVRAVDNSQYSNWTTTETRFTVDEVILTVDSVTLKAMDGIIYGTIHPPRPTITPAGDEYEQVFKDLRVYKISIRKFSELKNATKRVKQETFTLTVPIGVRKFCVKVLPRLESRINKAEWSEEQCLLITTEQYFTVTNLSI

T2: hIL10RaFc (R&D 9044-RI) (human, UniProt Q13651)
T2 chain: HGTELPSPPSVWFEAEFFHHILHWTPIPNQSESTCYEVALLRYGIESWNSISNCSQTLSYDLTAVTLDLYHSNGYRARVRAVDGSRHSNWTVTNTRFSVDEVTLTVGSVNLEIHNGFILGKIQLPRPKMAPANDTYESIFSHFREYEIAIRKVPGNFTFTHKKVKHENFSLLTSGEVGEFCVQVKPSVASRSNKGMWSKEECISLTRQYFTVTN

B1: DR2822 (designed binder)
chain: GKSKAVEQVKSDFNKLQDQGVYKAMNEFDIFINAIEAYMMIKMKSREDNNCTHFPVGQSHMLLELRTAFSQVKTFFQTKDQLDNILLTDSLMQDFKGYLGCQALSEMIQFYLVEVMPQAEKHGPEIKEHLNSLGEKLKTLRMRLRRCHRFLPCEN
B2: WC161_AA (mIL10 WT inverted monomer) (designed binder)
chain: NKSKAVEQVKSDFNKLQDQGVYKAMNEFDIFINAIEAYMMIKMKSSRGQYSREDNNCTHFPVGQSHMLLELRTAFSQVKTFFQTKDQLDNILLTDSLMQDFKGYLGCQALSEMIQFYLVEVMPQAEKHGPEIKEHLNSLGEKLKTLRMRLRRCHRFLPCENGGSHHHHHHHH
B3: DR2820 (designed binder)
chain: GKCKAVEQVKSDFNKLQDQGVYKAMNEFDIFINAIEAYMMIKMKSQYSREDNNCTHFPVGQSHMLLELRTAFSQVKTFFQTKDQLDNILLTDSLMQCFKGYLGCQALSEMIQFYLVEVMPQAEKHGPEIKEHLNSLGEKLKTLRMRLRRCHRFLPCEN
B4: DR2821 (designed binder)
chain: B3 chain with C3S, V6C, C97D, E109C
B5: DR2818 (designed binder)
chain: B3 chain with C3S, A5C, L94C, C97D
B6: DR2819 (designed binder)
chain: B3 chain with C3S, A5C
B7: DR2806 (designed binder)
chain: GKSKAVEQVKSIFNKLQDQGVYKAMNEFDIFINAIEAYMMIKMKSSREDNNCTHFNVGLSHMLLELRTAFSQVKTFFQTKDQLDNILLTDSLMQDFKGYLGCQALSEMIQFYLVEVLPQAEKHGPEIKEHLNSLGEILKTLRMRLRRCHRFLPCEN
B8: DR2807 (designed binder)
chain: B7 chain with N56P, L59Q, L117M, I137K
B9: DR2809 (designed binder)
chain: B7 chain with F55A, N56P, L59Q, I137K
B10: DR2803 (designed binder)
chain: B7 chain with F55A, N56P, G58A, L59F, S60W
B11: DR2813 (designed binder)
chain: B7 chain with I12D, N56W, G58A, L59M, F70A, N132I
B12: DR2817 (designed binder)
chain: B7 chain with I12D, F55A, N56P, L59Q, I137K
B13: DR2815 (designed binder)
chain: B7 chain with I12D, G58V, L59M, I137K
B14: DR2816 (designed binder)
chain: B7 chain with I12D, F55A, N56P, L59Q
B15: DR2808 (designed binder)
chain: B7 chain with F55A, N56P, L59Q
B16: DR2805 (designed binder)
chain: B7 chain with F31V, F55A, N56P, G58M, L59F
B17: DR2802 (designed binder)
chain: B7 chain with N56M, G58A, L59M, I137K
B18: DR2823 (designed binder)
chain: B7 chain with I12D, N56P, L59Q, L117M, I137K
B19: DR2804 (designed binder)
chain: B7 chain with F55A, N56P, L59M, N132I
B20: hIL10 WT (protein)
chain: SPGQGTQSENSCTHFPGNLPNMLRDLRDAFSRVKTFFQMKDQLDNLLLKESLLEDFKGYLGCQALSEMIQFYLEEVMPQAENQDPDIKAHVNSLGENLKTLRLRLRRCHRFLPCENKSKAVEQVKNAFNKLQEKGIYKAMSEFDIFINYIEAYMTMKIRN
modifications: wild-type human IL10, homodimer; exact construct/tag not stated
B21: h_DR1060_AA (hIL10 WT inverted monomer) (designed binder)
chain: KSKAVEQVKNAFNKLQEKGIYKAMSEFDIFINYIEAYMTMKIRNSPGQGTQSENSCTHFPGNLPNMLRDLRDAFSRVKTFFQMKDQLDNLLLKESLLEDFKGYLGCQALSEMIQFYLEEVMPQAENQDPDIKAHVNSLGENLKTLRLRLRRCHRFLPCENGGSHHHHHHHH
B22: mIL10 WT (protein)
chain: SRGQYSREDNNCTHFPVGQSHMLLELRTAFSQVKTFFQTKDQLDNILLTDSLMQDFKGYLGCQALSEMIQFYLVEVMPQAEKHGPEIKEHLNSLGEKLKTLRMRLRRCHRFLPCENKSKAVEQVKSDFNKLQDQGVYKAMNEFDIFINCIEAYMMIKMKS
modifications: wild-type mouse IL10, homodimer; exact construct/tag not stated

For the first assay, the target named is T1, mIL10RaFc (Sino 51298-M02H). The assay is described as follows: SPR.
In the case of B1, the affinity, expressed as Kd, was 6.42 nM.
On to B2, for which the dissociation constant (Kd) (as a rule, a measure of binding affinity in units of concentration) turned out to be 5.27 nM.
Regarding B3, the affinity, expressed as Kd, was 3.37 nM.
Still for that read-out and setting: in the case of B4 it was 4.49 nM.
B5: the dissociation constant Kd worked out at 2.34 nM.
In turn, B6 yielded a Kd of 2.71 nM.
On to B7, for which the equilibrium dissociation constant (Kd) is 2.7 nM.
The same measure, in the same setting: the figure for B8 is 144 nM; for B9 it is 17.3 nM.
In turn, B10 gave a Kd of 1.7 nM.
Same read-out and setting: the figure for B11 is 39.9 nM.
Same read-out and setting: the figure for B12 is 1.65 nM; for B13 it is 1 nM; for B14 it is 1.61 nM.
Still for that read-out and setting: the figure for B15 is 1.35 nM; for B16 it is 30.9 nM; for B17 it is 2.29 nM.
For B18, the Kd was found to be 5.2 nM.
Same read-out and setting: the figure for B19 is 1.59 nM.

The next assay addresses T2, hIL10RaFc (R&D 9044-RI). The assay is described as follows: SPR.
Molecule B20 had a dissociation constant (Kd) of 0.06 nM.
For the molecule B21, the Kd is 0.38 nM.

Another assay addresses T1, mIL10RaFc (Sino 51298-M02H). The assay is described as follows: SPR. The source holds these as a separate data set. In general terms: SPR reads the build-up and loss of mass on a sensor chip optically.
With B2, the Kd worked out at 6.54 nM.
Same read-out and setting: in the case of B22 it was 0.81 nM.

The values are drawn from patent US20260365709 (published 2026).
